Data set [1] deals with T1, hDicer (human recombinant Dicer) (human, UniProt Q9UPY3 1-1922). As to the kind of experiment: competition; displaces labeled ATD_13.6; Filter binding: 20 mM Tris-HCl pH 7.5, 250 mM NaCl (membrane pre-soak/reaction buffer), 37 C 30 min; hDicer EMSA: 20 min at 4 C, Dicer preincubated without divalent cations (Fig S1), native PAGE. The note with it: protein: commercial; hairpin. A general note: In EMSA bound probe runs differently from free probe, usually more slowly.

Data set [2] addresses T1, hDicer (human recombinant Dicer). As to the kind of experiment: EMSA; 4 C; Filter binding: 20 mM Tris-HCl pH 7.5, 250 mM NaCl (membrane pre-soak/reaction buffer), 37 C 30 min; hDicer EMSA: 20 min at 4 C, Dicer preincubated without divalent cations (Fig S1), native PAGE. As to conditions: protein: commercial; label: 5'-32P; single strand.
For data set [3] the target is unchanged. As to the kind of experiment: competition; displaces labeled ATD_13.6 (most profound effect); Filter binding: 20 mM Tris-HCl pH 7.5, 250 mM NaCl (membrane pre-soak/reaction buffer), 37 C 30 min; hDicer EMSA: 20 min at 4 C, Dicer preincubated without divalent cations (Fig S1), native PAGE. The note with it: protein: commercial; hairpin.
For data set [4] the target is unchanged. As to the kind of experiment: EMSA; no divalent metal, 4 C; Filter binding: 20 mM Tris-HCl pH 7.5, 250 mM NaCl (membrane pre-soak/reaction buffer), 37 C 30 min; hDicer EMSA: 20 min at 4 C, Dicer preincubated without divalent cations (Fig S1), native PAGE. The note with it: protein: commercial; label: 5'-32P.

B1: pre-miR-33a (structured_RNA)
RNA: GUGCAUUGUAGUUGCAUUGCAUGUUCUGGUGGUACCCAUGCAAUGUUUCCACAGUGCAUC
Take B1: the binding result in data set [1] is reported as “binds”. On to GGGGCAGCGCAG (XNA, 2'-O-methyl at every ribose) [2OMe-AL-210], for which, in data set [2], the binding result is “binds”.

B2: pre-miR-21 (structured_RNA)
RNA: AGCUUAUCAGACUGAUGUUGACUGUUGAAUCUCAUGGCAACACCAGUCGAUGGGCUGU
For B2, the binding result in data set [1] is given as “binds”.

B3: pre-miR-16-1 (structured_RNA)
RNA: UAGCAGCACGUAAAUAUUGGCGUUAAGAUUCUAAAAUUAUCUCCAGUAUUAACUGUGCUGCUGAA
As for B3, in data set [3], the binding result is “binds”.

B4: ATD_15.52 (structured_RNA)
RNA: GGGAGAAUCAUAAGUAGCGCAGUGAGUCGUUGUGCUGCCCAUGUUAACAGUUAGCC
In the case of B4, the binding result in data set [4] was “binds”.

(Values after PMC3812226, “A New Short Oligonucleotide-Based Strategy for the Precursor-Specific Regulation of microRNA Processing by Dicer”.)
